Measurements published in publication PMC12098869, “An mRNA-display derived cyclic peptide scaffold reveals the substrate binding interactions of an N-terminal cysteine oxidase” (Nature Communications, 2025).
Values joined by “and” are separate entries in the source; they are usually repeats but may differ in a detail not shown here. Equal entries are not always repeated.

Legend:
Experiment in all cases: SPR; biotinylated ADO or ADO mutant immobilised on a Biotin CAP chip (~2500-3000 RU), substrate peptide injected; Biacore T200, 4 °C; 20 mM HEPES pH 7.5, 500 mM NaCl, 10 mM DTT, 0.1% tween-20; 50 µL/minute; multi-cycle or single-cycle mode not given; each cell is one of three independent measurements
Conditions in all cases: both partners purified
[1] = target: T1, ADO-F101A, N-terminally His-tagged and biotinylated (human, UniProt Q96SZ5 1-270, F101A, biotin (biotinylated during expression))
T1 construct: 2-aminoethanethiol dioxygenase (ADO), human, UniProt Q96SZ5, full length, site-directed mutant; source: E. coli Rosetta2(DE3), purified (Ni-NTA, SEC); not shown: biotinylation tag (from the vector pQE80L-Navi), N-terminal, kept
T1 sequence (looked up): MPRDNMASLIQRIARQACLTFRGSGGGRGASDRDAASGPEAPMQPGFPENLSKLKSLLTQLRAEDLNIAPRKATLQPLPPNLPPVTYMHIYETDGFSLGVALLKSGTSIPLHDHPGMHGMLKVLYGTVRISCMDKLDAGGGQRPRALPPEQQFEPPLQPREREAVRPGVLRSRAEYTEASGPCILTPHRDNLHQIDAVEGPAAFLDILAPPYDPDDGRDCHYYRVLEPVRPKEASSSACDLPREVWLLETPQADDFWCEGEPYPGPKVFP

[2] = target: T2, ADO-Y87A, N-terminally His-tagged and biotinylated (human, UniProt Q96SZ5 1-270, Y87A, biotin (biotinylated during expression))
T2 construct: 2-aminoethanethiol dioxygenase (ADO), human, UniProt Q96SZ5, full length, site-directed mutant; source: E. coli Rosetta2(DE3), purified (Ni-NTA, SEC); not shown: biotinylation tag (from the vector pQE80L-Navi), N-terminal, kept
T2 sequence (looked up): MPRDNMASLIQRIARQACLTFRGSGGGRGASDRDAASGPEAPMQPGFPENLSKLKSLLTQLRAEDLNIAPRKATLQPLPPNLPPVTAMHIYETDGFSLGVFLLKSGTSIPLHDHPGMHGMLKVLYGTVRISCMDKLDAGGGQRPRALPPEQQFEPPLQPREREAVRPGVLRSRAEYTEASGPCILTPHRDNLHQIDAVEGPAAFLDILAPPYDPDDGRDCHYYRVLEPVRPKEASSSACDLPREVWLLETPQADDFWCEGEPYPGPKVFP

[3] = target: T3, ADO-I109A, N-terminally His-tagged and biotinylated (human, UniProt Q96SZ5 1-270, I109A, biotin (biotinylated during expression))
T3 construct: 2-aminoethanethiol dioxygenase (ADO), human, UniProt Q96SZ5, full length, site-directed mutant; source: E. coli Rosetta2(DE3), purified (Ni-NTA, SEC); not shown: biotinylation tag (from the vector pQE80L-Navi), N-terminal, kept
T3 sequence (looked up): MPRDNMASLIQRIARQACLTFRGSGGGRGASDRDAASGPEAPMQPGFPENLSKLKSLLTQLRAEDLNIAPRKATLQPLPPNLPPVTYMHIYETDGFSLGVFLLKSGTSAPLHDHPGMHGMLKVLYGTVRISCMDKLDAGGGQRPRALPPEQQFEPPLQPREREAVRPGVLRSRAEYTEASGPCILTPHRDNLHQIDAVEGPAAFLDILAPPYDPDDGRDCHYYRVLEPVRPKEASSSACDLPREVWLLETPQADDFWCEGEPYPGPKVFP

[4] = target: T4, ADO-Y87F, N-terminally His-tagged and biotinylated (human, UniProt Q96SZ5 1-270, Y87F, biotin (biotinylated during expression))
T4 construct: 2-aminoethanethiol dioxygenase (ADO), human, UniProt Q96SZ5, full length, site-directed mutant; source: E. coli Rosetta2(DE3), purified (Ni-NTA, SEC); not shown: biotinylation tag (from the vector pQE80L-Navi), N-terminal, kept
T4 sequence (looked up): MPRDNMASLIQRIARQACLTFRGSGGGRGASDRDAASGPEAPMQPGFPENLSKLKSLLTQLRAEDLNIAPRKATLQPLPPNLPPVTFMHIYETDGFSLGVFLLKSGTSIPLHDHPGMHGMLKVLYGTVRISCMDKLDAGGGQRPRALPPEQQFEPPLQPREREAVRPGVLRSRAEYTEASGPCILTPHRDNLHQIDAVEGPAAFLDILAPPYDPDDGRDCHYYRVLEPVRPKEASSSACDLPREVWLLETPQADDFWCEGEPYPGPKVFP

[5] = target: T5, ADO-F256A, N-terminally His-tagged and biotinylated (human, UniProt Q96SZ5 1-270, F256A, biotin (biotinylated during expression))
T5 construct: 2-aminoethanethiol dioxygenase (ADO), human, UniProt Q96SZ5, full length, site-directed mutant; source: E. coli Rosetta2(DE3), purified (Ni-NTA, SEC); not shown: biotinylation tag (from the vector pQE80L-Navi), N-terminal, kept
T5 sequence (looked up): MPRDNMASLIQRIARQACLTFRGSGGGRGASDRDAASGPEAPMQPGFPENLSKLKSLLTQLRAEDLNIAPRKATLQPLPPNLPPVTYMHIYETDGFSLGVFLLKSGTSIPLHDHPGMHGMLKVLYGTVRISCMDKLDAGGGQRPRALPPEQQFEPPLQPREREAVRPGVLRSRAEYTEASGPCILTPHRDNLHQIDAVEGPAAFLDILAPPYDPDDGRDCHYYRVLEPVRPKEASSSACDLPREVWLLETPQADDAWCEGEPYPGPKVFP

Kd [1]: 42.7 µM and 46.3 µM and 52.3 µM | Kd [2]: 1.48 µM and 1.65 µM and 1.84 µM | Kd [3]: 1.12 µM and 1.24 µM and 1.43 µM | Kd [4]: 339 nM (2×) and 336 nM | Kd [5]: 0.717 µM and 0.753 µM and 0.714 µM
B1: RGS5(2-15), synthetic peptide corresponding to the methionine excised N-terminus of RGS5, residues 2 to 15 (peptide, UniProt O15539 2-15, looked up)
peptide: CKGLAALPHSCLER
notes: regulator of G-protein signalling 5 (RGS5), residues 2 to 15 (N-terminal Cys exposed); UniProt O15539 is printed for the full-length human protein; also called 14-mer RGS5; source: synthetic peptide
